# Patent US9090676B2, “Method for treating Helicobacter pylori infections” (priority 2006, dated 2015)
# Entries after “also recorded” stand apart in the source; their conditions may differ.
# B1: recombinant HPGGT: recombinant His-tagged gamma glutamyl transpeptidase of H. pylori expressed in E. coli (protein, listed as Helicobacter pylori)
# chain: MRRSFLKTIGLGVIALFLGLLNPLSAASYPPIKNTKVGLALSSHPLASEIGQKVLEEGGNAIDAAVAIGFALAVVHPAAGNIGGGGFAVIHLANGENVALDFREKAPLKATKNMFLDKQGNVVPKLSEDGYLAAGVPGTVAGMEAMLKKYGTKKLSQLIDPAIKLAENGYAISQRQAETLKEARERFLKYSSSKKYFFKKGHLDYQEGDLFVQKDLAKTLNQIKTLGAKGFYQGQVAELIEKDMKKNGGIITKEDLASYNVKWRKPVVGSYRGYKIISMSPPSSGGTHLIQILNVMENADLSALGYGASKNIHIAAEAMRQAYADRSVYMGDADFVSVPVDKLINKAYAKKIFDTIQPDTVTPSSQIKPGMGQLHEGSNTTHYSVADRWGNAVSVTYTINASYGSAASIDGAGFLLNNEMDDFSIKPGNPNLYGLVGGDANAIEANKRPLSSMSPTIVLKNNKVFLVVGSPGGSRIITTVLQVISNVIDYNMNISEAVSAPRFHMQWLPDELRIEKFGMPADVKDNLTKMGYQIVTKPVMGDVNAIQVLPKTKGSVFYGSTDPRKEF
# modifications: His-tag
# notes: recombinant His-tagged gamma glutamyl transpeptidase of H. pylori expressed in E. coli
# Assays:
# [1] = system: gamma glutamyl transpeptidase of Helicobacter pylori (HPGGT); assay: GGT activity assay: inhibition of GGT by acivicin; assay type: biochemical
# Method: (§1) The assay for GGT activity was adapted from the method of Meister et al.^27 Briefly, reaction buffer consisting of 20 mM glycyl-glycine (Sigma) as acceptor, 2.5 mM L-γ-glutamyl-p-nitroanilide (Calbiochem, Schwalbach, Germany) as donor substrate and 100 mM Tris-HCl (pH 8.0) was prepared. In some experiments pH of assay buffer was varied between 2 and 10. Supernatants of different H. pylori strains, purified recombinant HPGGT or equine kidney GGT (Sigma) were added and the reaction proceeded at 37° C. for 30 min. The release of p-nitroanilide was monitored by spectrophotometry at 405 nm. One unit of activity was defined as the quantity of enzyme that released 1 μmol of p-nitroanilide per min and per mg of protein at 37° C.
# This compound acts as an irreversible and competitive inhibitor of GGT. […] Similar results were obtained for recombinant HPGGT (data not shown).
# [2] = system: human PBMC; assay: Cell proliferation assay (3H-thymidine incorporation), stimulated PBMC; assay type: cell-based
# Method: Isolation of peripheral blood lymphocytes (PBMC) was performed as described previously^3. All cells were incubated at 37° C. with 5% CO2. Jurkat T cells and PBMC were cultured in RPMI 1640 (Invitrogen, Karlsruhe, Germany) with 10% FCS. EL-4 T cells were cultured in DMEM (Invitrogen) supplemented with 10% horse serum (Cambrex, Verviers, Belgium).
# Cells (10^5 PBMC, purified primary T cells or 10^4 Jurkat/EL-4 cells/well) were cultured in 96-well flat-bottom plates in complete medium. PBMC were stimulated in triplicate with PMA (20 ng/ml; Sigma) and Ionomycin (100 ng/ml; Sigma) and all cells were grown with or without indicated total protein concentrations of H. pylori supernatants or recombinant proteins. Primary human T cells were stimulated with either PMA/Ionomycin as described above or with anti-CD3/CD28 beads (Invitrogen) at 1 bead per T cell. Cellular proliferation was determined after 48 h by methyl-[^3H]-thymidine (GE Healthcare) incorporation using a Packard Direct Beta Counter Matrix 9600 (Packard Instruments Co, Downer's Grove, Ill.).
# [3] = system: Jurkat T cells; assay: Analysis of apoptosis (Annexin V-FITC/PI, FACS); assay type: cell-based; details: 1 μM, 24 h
# Method: 5×10^5 Jurkat T cells were treated as indicated. After 24 h cells were harvested by centrifugation, washed, resuspended in 500 μl AnnexinV-binding buffer (10 mM HEPES/NaOH, pH7.4, 140 mM NaCl, 2.5 mM CaCl2) and stained for 10 min each with 5 μl recombinant Annexin V-FITC (Caltag, Burlingame, Calif.) and 0.5 μg/ml PI at room temperature in the dark. Apoptotic cells were measured by FACS analysis (see above). Data were analyzed using Cell Quest software.
# [4] = system: HPGGT; assay: Immunization of animals, sera assayed for inhibition of GGT catalytic activity; assay type: in vivo, Helicobacter pylori; details: mice, sera taken 6 weeks after immunization
# From the text: FIG. 9 is a diagram indicating the inhibitory effect of sera from immunized or infected mice on enzymatic activity of HPGGT. Mice were immunized with the indicated formulations or received PBS as control or were infected with live H. pylori. Sera were taken from tail veins 6 weeks after immunization or infection and assayed for inhibitory activity towards GGT catalytic activity.
# as §1
# [5] = GGT activity assay: catalytic activity of GGT proteins and fractions; assay type: biochemical
# Method: as §1
# [6] = system: human PBMCs; assay: Immunoblotting of cell cycle regulatory proteins in PBMC; assay type: cell-based; details: 24 h and 48 h
# Method: FIG. 6B an SDS PAGE of the proteins obtained from 10^7 PBMC which were incubated with different concentrations of HPWT and HPΔGGTSN or rHPGGT for 24 h and 48 h and subsequently lysed. 35 μg of total protein were separated by SDS-PAGE and analyzed by immunoblotting. Levels of indicated proteins were determined using the corresponding antibodies. Data were reproduced 2 times with similar results. (HP=H. pylori, SN=supernatant, WT=wild-type).
# For immunoblot analysis 10^7 Jurkat T cells or PBMC were used. Prior to the experiment, Jurkat cells were serum starved for 18 h in medium containing 0.2% FCS. Afterwards, cells were released with 10% FCS and treated as depicted. At the indicated time points, the cells were harvested, washed once with ice-cold PBS, resuspended in 1× lysis buffer (Cell Signaling Technology, Danvers, Mass.) containing protease inhibitors (2.5 mM sodium pyrophosphate, 1 mM β-glycerophosphate, 1 mM Na3VO4, 1 μg/ml leupeptin, 1 mM PMSF; Sigma) and sonicated with a micro tip sonifier on ice for 30 sec. Lysates were centrifuged at 10000×g for 10 min at 4° C. and supernatants were used for immunoblotting. Equal amounts of protein (determined by Bradford assay, BioRad) were separated by Tricine-SDS-PAGE and electrotransferred onto nitrocellulose membranes (BioRad). […]
# [7] = system: Jurkat T cells; assay: Immunoblotting of cell cycle regulatory and signaling proteins; assay type: cell-based
# Method: For immunoblot analysis 10^7 Jurkat T cells or PBMC were used. Prior to the experiment, Jurkat cells were serum starved for 18 h in medium containing 0.2% FCS. Afterwards, cells were released with 10% FCS and treated as depicted. At the indicated time points, the cells were harvested, washed once with ice-cold PBS, resuspended in 1× lysis buffer (Cell Signaling Technology, Danvers, Mass.) containing protease inhibitors (2.5 mM sodium pyrophosphate, 1 mM β-glycerophosphate, 1 mM Na3VO4, 1 μg/ml leupeptin, 1 mM PMSF; Sigma) and sonicated with a micro tip sonifier on ice for 30 sec. Lysates were centrifuged at 10000×g for 10 min at 4° C. and supernatants were used for immunoblotting. Equal amounts of protein (determined by Bradford assay, BioRad) were separated by Tricine-SDS-PAGE and electrotransferred onto nitrocellulose membranes (BioRad). For detection, membranes were probed with primary antibodies anti-p27, anti-Cyclin D3, anti-Cyclin E, anti-c-Myc (Dianova, Hamburg, Germany), anti-Cdk2 (Santa-Cruz Biotechnology, Heidelberg, Germany), anti-phospho-AKT (Ser 473), anti-phospho-c-Raf (Ser 338), anti-phospho-p70S6K (Thr 389; Cell Signaling), anti-phospho-FKHRL1/Foxo3 (Thr 32; Upstate, Lake Placid, N.Y.), anti-Actin (Sigma) and anti-VacA (Austral Biologicals, San Ramon, Calif.). […] For detection of the large subunit of the HPGGT protein a polyclonal rabbit anti-GGT antibody raised against a synthesized peptide IQPDTVTPSSQIKPGM including amino acid residues 356 to 371 of the HP 1118 gene product (Charles River, Kisslegg, Germany) was used.
# [8] = system: IFN-γ; assay: IFN-γ ELISA of PBMC supernatants; assay type: cell-based, human; details: PBMC stimulated with PMA and Ionomycin, 24 h
# Method: (§2) PBMC (5×10^5 each) were treated for 24 h as depicted. At indicated time points cells were removed by centrifugation and supernatants were analyzed for amounts of IL-2 (eBioscience, San Diego, Calif.) and IFN-γ (Biosource, Solingen, Germany) by ELISA according to the manufacturer's instructions. The lower limits of detection were 4 pg/ml.
# (§3) To date so far nothing was known about a role of HPGGT during suppression of the host's immune response. The inhibition of lymphocyte proliferation by HPGGT reported here might result from interference with cytokine secretion of human PBMCs. To test this hypothesis, cells were stimulated with PMA and Ionomycin and incubated with or without H. pylori wild-type and ΔGGT supernatants or recombinant HPGGT at different concentrations for 24 h. […] In addition secretion of IFN-γ was not reduced (FIG. 5B).
# [9] = system: IL-2; assay: IL-2 ELISA of PBMC supernatants; assay type: cell-based, human; details: PBMC stimulated with PMA and Ionomycin, 24 h, compared to stimulated control
# Method: as §2, §3
# [10] = incubation of the HPGGT with acivicin
# [11] = preincubation of HPWTSN with acivicin (50 μM) for 2 h at 37° C.
molecule,measurement,setting,value
N[C@H](C(=O)O)[C@@H]1CC(Cl)=NO1 [acivicin],catalytic activity of HPGGT after incubation with acivicin,[1]; [10],completely abolishes
same,GGT activity of H. pylori wild-type supernatants after pretreatment with acivicin,[1]; [11],abrogated; also recorded: completely repressed
same,inhibitory effect of the enzyme (HPGGT) towards lymphocytes after incubation with acivicin,[2]; [10],completely abolishes
same,inhibition of PBMC proliferation by H. pylori wild-type supernatants after pretreatment with acivicin,[2]; [11],abrogated; also recorded: completely repressed
"CN[C@@H]1C[C@H]2O[C@@](C)([C@@H]1OC)n1c3ccccc3c3c4c(c5c6ccccc6n2c5c31)C(=O)NC4 [staurosporin, reference compound]",apoptosis (positive control),[3],strongly induced apoptosis
"IQPDTVTPSSQIKPGM [peptide 356-371, peptide of HPGGT residues 356 to 371, far from the catalytic center]",inhibitory antibodies / inhibitory immune response against HPGGT in serum,[4],No inhibitory immune response
B1,enzymatic GGT activity,"[5]; pH 8.0, 37° C., 30 min",strong GGT activity
same,pH range of catalytic activity,[5]; pH of assay buffer varied between 2 and 10,2-10
same,"cell cycle regulating proteins (Cyclin D3, E1) in PBMC",[6],even stronger reduction
same,Cyclin levels,[7]; 2 μg/ml,complete reduction
same,"cellular levels and phosphorylation of AKT, p70S6k and Foxo 3 (PI3K-signaling)",[7]; Jurkat T cells and PBMC,not reduced
same,cellular levels of c-Myc and phosphorylation of c-Raf (Ras-dependent pathway),[7]; Jurkat T cells and PBMC,reduced
same,secretion of IFN-γ,[8],not reduced
same,reduction of IL-2 secretion,[9],none of these treatments led to reduction
same,inhibition of PBMC proliferation,"[2]; PBMC stimulated with PMA/Ionomycin, 48 h",efficiently inhibited
same,inhibitory effect of HPGGT on lymphocyte proliferation in the absence of glutamine,[2]; medium without the amino acid glutamine,completely abolished
